Target: neutral lactase (GODO-YNL2; unfragmented high molecular fraction F-1, about 120 kDa) (yeast, Kluyveromyces genus) (UniProt P00723)
Experiment: cell-based or functional assay

neutral lactase (GODO-YNL2; unfragmented high molecular fraction F-1, about 120 kDa) (yeast, Kluyveromyces genus), sequence (P00723 whole entry, the tested form may be a part): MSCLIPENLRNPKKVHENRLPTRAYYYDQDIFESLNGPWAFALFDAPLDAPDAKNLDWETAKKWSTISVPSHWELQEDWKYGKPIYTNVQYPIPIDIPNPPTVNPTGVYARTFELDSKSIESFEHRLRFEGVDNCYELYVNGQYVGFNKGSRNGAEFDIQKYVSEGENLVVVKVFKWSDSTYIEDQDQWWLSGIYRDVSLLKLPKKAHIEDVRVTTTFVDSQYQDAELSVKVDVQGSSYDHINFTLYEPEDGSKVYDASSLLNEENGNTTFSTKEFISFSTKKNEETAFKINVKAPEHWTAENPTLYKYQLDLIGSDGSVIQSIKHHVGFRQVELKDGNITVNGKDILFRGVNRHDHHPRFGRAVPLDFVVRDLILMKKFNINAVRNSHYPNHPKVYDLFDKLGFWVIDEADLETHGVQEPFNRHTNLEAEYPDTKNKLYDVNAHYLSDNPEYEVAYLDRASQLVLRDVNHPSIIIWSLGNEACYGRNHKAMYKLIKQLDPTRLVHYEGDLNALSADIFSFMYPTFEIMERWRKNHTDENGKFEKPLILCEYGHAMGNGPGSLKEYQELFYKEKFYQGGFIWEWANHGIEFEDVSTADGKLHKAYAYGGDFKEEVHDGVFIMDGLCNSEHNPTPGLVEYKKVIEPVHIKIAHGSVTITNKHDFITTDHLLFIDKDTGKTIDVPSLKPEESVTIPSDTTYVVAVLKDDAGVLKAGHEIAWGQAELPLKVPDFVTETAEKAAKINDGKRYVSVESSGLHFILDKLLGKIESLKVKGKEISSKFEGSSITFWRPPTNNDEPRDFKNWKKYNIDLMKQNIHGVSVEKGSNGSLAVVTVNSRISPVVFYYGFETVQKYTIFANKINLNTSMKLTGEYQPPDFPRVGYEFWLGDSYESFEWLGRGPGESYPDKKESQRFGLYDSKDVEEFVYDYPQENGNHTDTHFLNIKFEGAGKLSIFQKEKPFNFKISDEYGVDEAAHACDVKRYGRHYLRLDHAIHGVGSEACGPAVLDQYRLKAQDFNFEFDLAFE

Q: For “proteinase B derived from Kluyveromyces lactis (mature enzyme)”, which amount of PrB not causing fragmentation of lactase (30° C., 20 hours, SDS-PAGE) is on record?
A: 0.26 ng per NLU
